Data: patent publication US20100260668A1 (published 2010)

B1: DVD660 (bispecific antibody, human IgG1, kappa)
heavy: not shown
light: DIQMTQSPSSLSASVGDRVTITCSASQDISNYLNWYQQKPGKAPKVLIYFTSSLHSGVPSRFSGSGSGTDFTLTISSLQPEDFATYYCQQYSTVPWTFGQGTKVEIKRTVAAPDIQMTQSPSSLSASVGDRVTITCKASENVVSYVSWYQQKPGKAPKLLIYGASNRNTGVPSRFSGSGSGTDFTLTISSLQPEDFATYYCGQSYNYPYTFGQGTKLEIKRTVAAPSVFIFPPSDEQLKSGTASVVCLLNNFYPREAKVQWKVDNALQSGNSQESVTEQDSKDSTYSLSSTLTLSKADYEKHKVYACEVTHQGLSSPVTKSFNRGEC
notes: DVD-Ig; HC linker short, LC linker short; vectors V1/V2
B2: DVD646 (bispecific antibody, human IgG1, kappa)
heavy: not shown
light: DIQMTQSPSSLSASVGDRVTITCRASQVIRRSLAWYQQKPGKAPKLLIYAASNLASGVPSRFSGSGSGTDFTLTISSLQPEDFATYYCQQSNTSPLTFGQGTKVEIKRTVAAPSVFIFPPDIQMTQSPSSVSASVGDRVTITCRASQGISSWLAWYQQKPGKAPNLLIYEASSLQSGVPSRFGGSGSGTDFTLTISSLQPEDFATYYCQQANGFPWTFGQGTKVEIKRTVAAPSVFIFPPSDEQLKSGTASVVCLLNNFYPREAKVQWKVDNALQSGNSQESVTEQDSKDSTYSLSSTLTLSKADYEKHKVYACEVTHQGLSSPVTKSFNRGEC
notes: DVD-Ig; N-term VD AB071 (VEGF), C-term VD AB012 (HGF); HC linker long, LC linker long; vectors V1/V2
B3: DVD658 (bispecific antibody, human IgG1, kappa)
heavy: not shown
light: B2 light
notes: DVD-Ig; N-term VD AB071 (VEGF), C-term VD AB012 (HGF); HC linker short, LC linker long; vectors V1/V2
B4: DVD652 (bispecific antibody, human IgG1, kappa)
heavy: not shown
light: DIQMTQSPSSLSASVGDRVTITCRASQVIRRSLAWYQQKPGKAPKLLIYAASNLASGVPSRFSGSGSGTDFTLTISSLQPEDFATYYCQQSNTSPLTFGQGTKVEIKRTVAAPDIQMTQSPSSVSASVGDRVTITCRASQGISSWLAWYQQKPGKAPNLLIYEASSLQSGVPSRFGGSGSGTDFTLTISSLQPEDFATYYCQQANGFPWTFGQGTKVEIKRTVAAPSVFIFPPSDEQLKSGTASVVCLLNNFYPREAKVQWKVDNALQSGNSQESVTEQDSKDSTYSLSSTLTLSKADYEKHKVYACEVTHQGLSSPVTKSFNRGEC
notes: DVD-Ig; N-term VD AB071 (VEGF), C-term VD AB012 (HGF); HC linker long, LC linker short; vectors V1/V2
B5: DVD644 (bispecific antibody, human IgG1, kappa)
heavy: not shown
light: DIQMTQSPSSLSASVGDRVTITCRASQDVSTAVAWYQQKPGKAPKLLIYSASFLYSGVPSRFSGSGSGTDFTLTISSLQPEDFATYYCQQSYTTPPTFGQGTKVEIKRTVAAPSVFIFPPDIQMTQSPSSVSASVGDRVTITCRASQGISSWLAWYQQKPGKAPNLLIYEASSLQSGVPSRFGGSGSGTDFTLTISSLQPEDFATYYCQQANGFPWTFGQGTKVEIKRTVAAPSVFIFPPSDEQLKSGTASVVCLLNNFYPREAKVQWKVDNALQSGNSQESVTEQDSKDSTYSLSSTLTLSKADYEKHKVYACEVTHQGLSSPVTKSFNRGEC
notes: DVD-Ig; HC linker long, LC linker long; vectors V1/V2
B6: DVD656 (bispecific antibody, human IgG1, kappa)
heavy: not shown
light: B5 light
notes: DVD-Ig; HC linker short, LC linker long; vectors V1/V2
B7: DVD648 (bispecific antibody, human IgG1, kappa)
heavy: not shown
light: DIQMTQSPSSLSASVGDRVTITCSASQDISNYLNWYQQKPGKAPKVLIYFTSSLHSGVPSRFSGSGSGTDFTLTISSLQPEDFATYYCQQYSTVPWTFGQGTKVEIKRTVAAPDIQMTQSPSSVSASVGDRVTITCRASQGISSWLAWYQQKPGKAPNLLIYEASSLQSGVPSRFGGSGSGTDFTLTISSLQPEDFATYYCQQANGFPWTFGQGTKVEIKRTVAAPSVFIFPPSDEQLKSGTASVVCLLNNFYPREAKVQWKVDNALQSGNSQESVTEQDSKDSTYSLSSTLTLSKADYEKHKVYACEVTHQGLSSPVTKSFNRGEC
notes: DVD-Ig; HC linker long, LC linker short; vectors V1/V2
B8: DVD650 (bispecific antibody, human IgG1, kappa)
heavy: not shown
light: DIQMTQSPSSLSASVGDRVTITCRASQDVSTAVAWYQQKPGKAPKLLIYSASFLYSGVPSRFSGSGSGTDFTLTISSLQPEDFATYYCQQSYTTPPTFGQGTKVEIKRTVAAPDIQMTQSPSSVSASVGDRVTITCRASQGISSWLAWYQQKPGKAPNLLIYEASSLQSGVPSRFGGSGSGTDFTLTISSLQPEDFATYYCQQANGFPWTFGQGTKVEIKRTVAAPSVFIFPPSDEQLKSGTASVVCLLNNFYPREAKVQWKVDNALQSGNSQESVTEQDSKDSTYSLSSTLTLSKADYEKHKVYACEVTHQGLSSPVTKSFNRGEC
notes: as for B7
B9: DVD642 (bispecific antibody, human IgG1, kappa)
heavy: not shown
light: DIQMTQSPSSLSASVGDRVTITCSASQDISNYLNWYQQKPGKAPKVLIYFTSSLHSGVPSRFSGSGSGTDFTLTISSLQPEDFATYYCQQYSTVPWTFGQGTKVEIKRTVAAPSVFIFPPDIQMTQSPSSVSASVGDRVTITCRASQGISSWLAWYQQKPGKAPNLLIYEASSLQSGVPSRFGGSGSGTDFTLTISSLQPEDFATYYCQQANGFPWTFGQGTKVEIKRTVAAPSVFIFPPSDEQLKSGTASVVCLLNNFYPREAKVQWKVDNALQSGNSQESVTEQDSKDSTYSLSSTLTLSKADYEKHKVYACEVTHQGLSSPVTKSFNRGEC
notes: as for B5
B10: DVD654 (bispecific antibody, human IgG1, kappa)
heavy: not shown
light: B9 light
notes: as for B6
B11: DVD527 (bispecific antibody, IgG1)
VH: EVQLQQSGPELEKPGASVKISCKASGYSFTGYNMNWVKQSNGKSLEWIGNIDPYFGGTNYNQKFKGKATLTVDKSSSTAYMQLKSLTSEDSAVYYCARNYDYDGGCFDYWGQGTTLTVSSASTKGPSVFPLAPEVQLVESGGGLVQPGGSLRLSCAASGFTINASWIHWVRQAPGKGLEWVGAIYPYSGYTNYADSVKGRFTISADTSKNTAYLQMNSLRAEDTAVYYCARWGHSTSPWAMDYWGQGTLVTVSS
VL: QAVVTQESALTTSPGETVTLTCRSSTGAVTTSNYANWVQEKPDHLFTGLIGGTNNRAPGVPARFSGSLIGDKAALTITGAQTEDEAIYFCALWYSNHWVFGGGTKLTVLGQPKAAPDIQMTQSPSSLSASVGDRVTITCRASQVIRRSLAWYQQKPGKAPKLLIYAASNLASGVPSRFSGSGSGTDFTLTISSLQPEDFATYYCQQSNTSPLTFGQGTKVEIKR
notes: DVD-Ig, outer AB073 / inner AB071; HC linker long, LC linker short; also called DVD527H; DVD527L
B12: DVD522 (bispecific antibody, IgG1)
VH: EVQLVESGGGLVQPGGSLRLSCAASGFTINASWIHWVRQAPGKGLEWVGAIYPYSGYTNYADSVKGRFTISADTSKNTAYLQMNSLRAEDTAVYYCARWGHSTSPWAMDYWGQGTLVTVSSASTKGPSVFPLAPEVQLQQSGPELEKPGASVKISCKASGYSFTGYNMNWVKQSNGKSLEWIGNIDPYFGGTNYNQKFKGKATLTVDKSSSTAYMQLKSLTSEDSAVYYCARNYDYDGGCFDYWGQGTTLTVSS
VL: DIQMTQSPSSLSASVGDRVTITCRASQVIRRSLAWYQQKPGKAPKLLIYAASNLASGVPSRFSGSGSGTDFTLTISSLQPEDFATYYCQQSNTSPLTFGQGTKVEIKRTVAAPSVFIFPPQAVVTQESALTTSPGETVTLTCRSSTGAVTTSNYANWVQEKPDHLFTGLIGGTNNRAPGVPARFSGSLIGDKAALTITGAQTEDEAIYFCALWYSNHWVFGGGTKLTVLG
notes: DVD-Ig, outer AB071 / inner AB073; HC linker long, LC linker long; also called DVD522H; DVD522L
B13: DVD534 (bispecific antibody, IgG1)
VH: EVQLVESGGGLVQPGGSLRLSCAASGFTINASWIHWVRQAPGKGLEWVGAIYPYSGYTNYADSVKGRFTISADTSKNTAYLQMNSLRAEDTAVYYCARWGHSTSPWAMDYWGQGTLVTVSSASTKGPEVQLQQSGPELEKPGASVKISCKASGYSFTGYNMNWVKQSNGKSLEWIGNIDPYFGGTNYNQKFKGKATLTVDKSSSTAYMQLKSLTSEDSAVYYCARNYDYDGGCFDYWGQGTTLTVSS
VL: B12 VL
notes: DVD-Ig, outer AB071 / inner AB073; HC linker short, LC linker long; also called DVD534H; DVD534L
B14: DVD528 (bispecific antibody, IgG1)
VH: B12 VH
VL: DIQMTQSPSSLSASVGDRVTITCRASQVIRRSLAWYQQKPGKAPKLLIYAASNLASGVPSRFSGSGSGTDFTLTISSLQPEDFATYYCQQSNTSPLTFGQGTKVEIKRTVAAPQAVVTQESALTTSPGETVTLTCRSSTGAVTTSNYANWVQEKPDHLFTGLIGGTNNRAPGVPARFSGSLIGDKAALTITGAQTEDEAIYFCALWYSNHWVFGGGTKLTVLG
notes: DVD-Ig, outer AB071 / inner AB073; HC linker long, LC linker short; also called DVD528H; DVD528L

biological target: T1, VEGF 1-165 aa (UniProt P15692 27-191); assay: direct bind ELISA (N-term VD);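 further: ELISA screen of antibodies for binding to plate-immobilized target antigen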
T1 construct: Bought antigen coated on the ELISA plate
T1 sequence (P15692 other isoform, or with tags, fused parts or gaps limits assumed): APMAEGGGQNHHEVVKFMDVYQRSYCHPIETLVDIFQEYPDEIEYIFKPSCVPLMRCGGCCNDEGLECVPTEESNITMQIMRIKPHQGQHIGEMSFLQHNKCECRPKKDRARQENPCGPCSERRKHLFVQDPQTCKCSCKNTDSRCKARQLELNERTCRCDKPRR

| Binder | EC50 |
| --- | --- |
| B1 | 1.51 nM |
| B2 | 30.7 nM |
| B3 | 28.7 nM |
| B4 | 13.8 nM |
| B5 | 5.31 nM |
| B6 | 7.87 nM |
| B7 | 1.72 nM |
| B8 | 2.67 nM |
| B9 | 6.35 nM |
| B10 | 3.71 nM |

biological target: VEGF (VEGF 1-165 aa, R&D Systems 293-VE-010) (UniProt P15692 27-191); assay: Direct bind ELISA, VEGF coated on plate;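 further: ELISA screening of antibodies for binding to the plate-coated target antigen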
Sequence (P15692 other isoform, or with tags, fused parts or gaps limits assumed): as above

| Binder | EC50 |
| --- | --- |
| B11 | 2380 nM |
| B12 | 23.5 nM |
| B13 | 23.6 nM |
| B14 | 27.7 nM |

biological target: T2, HGF-His tag (UniProt P14210 32-728); assay: direct bind ELISA (C-term VD)
T2 construct: Bought antigen coated on the ELISA plate; not shown: His tag
T2 sequence (P14210 32-728 limits assumed): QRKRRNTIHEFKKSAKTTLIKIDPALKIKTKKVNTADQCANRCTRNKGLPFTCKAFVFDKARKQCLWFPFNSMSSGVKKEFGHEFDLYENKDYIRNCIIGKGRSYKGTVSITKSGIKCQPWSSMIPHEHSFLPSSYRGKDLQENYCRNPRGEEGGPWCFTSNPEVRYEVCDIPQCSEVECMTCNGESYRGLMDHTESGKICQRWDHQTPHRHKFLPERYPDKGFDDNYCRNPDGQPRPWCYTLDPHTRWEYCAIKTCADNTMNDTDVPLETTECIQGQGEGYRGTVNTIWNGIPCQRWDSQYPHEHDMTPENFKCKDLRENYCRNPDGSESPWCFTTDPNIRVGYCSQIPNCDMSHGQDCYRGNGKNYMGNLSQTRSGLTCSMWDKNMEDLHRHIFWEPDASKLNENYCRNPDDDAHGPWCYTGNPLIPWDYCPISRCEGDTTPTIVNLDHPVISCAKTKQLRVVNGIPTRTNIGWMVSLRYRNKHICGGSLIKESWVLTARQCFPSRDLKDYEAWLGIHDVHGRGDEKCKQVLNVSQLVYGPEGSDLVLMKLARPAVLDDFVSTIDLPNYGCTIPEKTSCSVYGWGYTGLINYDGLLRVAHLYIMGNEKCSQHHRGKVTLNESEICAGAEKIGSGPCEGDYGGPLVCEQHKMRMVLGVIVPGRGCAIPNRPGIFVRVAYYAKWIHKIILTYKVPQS

| Binder | EC50 |
| --- | --- |
| B1 | 449 nM |
| B2 | 0.49 nM |
| B3 | 0.94 nM |
| B4 | 4.71 nM |
| B5 | 0.29 nM |
| B6 | 1.27 nM |
| B7 | 4.17 nM |
| B8 | 4.63 nM |
| B9 | 0.87 nM |
| B10 | 0.91 nM |
